{"source": "patent US20090010876A1", "about": "“VISFATIN AND USES THEREOF” (THE TRUSTEES OF COLUMBIA UNIVERSITY IN THE CITY OF NEW YORK, priority 2007, published 2009)", "key": {"macrophages": {"test_system": "macrophages", "assay": "ER stress-mediated macrophage apoptosis, Alexa-488 annexin V staining", "assay_type": "cell-based", "settings": "pre-incubated with visfatin 24 h (FIG. 1A prints 1100 ng/ml, FIG. 1D ±100 ng/ml), then acetyl-LDL + 58035 (FC) 20 h or tunicamycin + fucoidan 24 h", "protocol": "FIG. 1. […] FIG. 1A. Macrophages were pre-incubated 1100 ng/ml visfatin (vis) for 24 h and then incubated with 50 μg/ml acetyl-LDL+10 μg/ml 58035 (FC) for 20 h. Apoptosis was assayed by Alexa-488 annexin V staining (green). One representative image per condition was shown. FIG. 1B. The percentage of apoptosis was quantified (mean±SEM, n=8). FIG. 1C. Macrophages incubated in medium (con) or with visfatin (vis) for 24 h. Whole cell lysates were immunoblotted for the insulin receptor β (IRβ), SR-A, CD36 and β-actin. FIG. 1D. Macrophages were pre-incubated ±100 ng/ml visfatin (vis) for 24 h and then incubated with 5 μg/ml tunicamycin +25 μg/ml fucoidan (TN/F) for 24 h. Apoptosis was assayed and quantified as described in FIG. 1A and FIG. 1B."}, "[1]": {"test_system": "unfolded protein response (UPR)", "assay": "Immunoblot of UPR markers in ER-stressed macrophages", "assay_type": "cell-based", "settings": "for distal UPR effectors / distal UPR activation (CHOP, ATF3, XBP-1, ATF4): visfatin 24 h pre-incubation, then FC, 5 μM thapsigargin or 5 μg/ml tunicamycin 5 h, immunoblot", "protocol": "FIG. 2. […] FIG. 2A. Macrophages were preincubated 1100 ng/ml visfatin (vis) for 24 h and then incubated with FC, 5 μM thapsigargin (TG), or 5 μg/ml tunicamycin (TN) for 5 h. Whole cell lysates were immunoblotted for CHOP, ATF3, and β-actin. FIG. 2B. Macrophages were pre-incubated ±100 ng/ml visfatin for 24 h and then incubated with 5 μg/ml TN for 5 h. The nuclear extracts were immunoblotted for XBP-1, ATF4, and nucleophosmin (loading control). FIG. 2C. Nuclei-free cell extracts from the above experiment were immunoblotted with antibodies against PERK, IRE1α, phospho-eIf2α, and β-actin."}, "ATF4 [2]": {"test_system": "ATF4", "assay": "ATF4 mRNA by RT-QPCR in FC-loaded macrophages", "assay_type": "cell-based", "settings": "visfatin 24 h pre-incubation, then acetyl-LDL + 58035 (FC); normalized with 36B4", "protocol": "(§1) FIG. 3. […] FIG. 3A. Macrophages were preincubated ±1100 ng/ml visfatin (v) for 24 h and then incubated with 50 μg/ml acetyl-LDL+10 μg/ml 58035 (FC) for indicated times. Total RNA was extracted and subjected to RT-QPCR. The mRNA level of ATF4 was normalized with a control gene 36B4. FIG. 3B. Macrophages were pre-incubated for 24 h±100 ng/ml visfatin (vis) and then incubated for 5 h+5 μg/ml tunicamycin (TN). The cells were pulsed with [35S]methionine/cysteine in methionine-free medium for 15 min and then lysed in RIPA buffer. ATF4 was immunoprecipitated using a rabbit antibody immobilized to protein A/G beads. A normal rabbit IgG served as control. The immunoprecipitate was subjected to SDS-PAGE and autoradiography."}, "ATF4 [3]": {"test_system": "ATF4", "assay": "ATF4 protein synthesis, [35S]methionine/cysteine pulse and immunoprecipitation", "assay_type": "cell-based", "settings": "±100 ng/ml visfatin 24 h, then 5 μg/ml tunicamycin 5 h, 15 min pulse", "protocol": "as §1"}, "insulin receptor": {"test_system": "insulin receptor", "assay": "CHOP immunoblot in macrophages from insulin receptor deficient and wild type mice", "assay_type": "cell-based", "settings": "IR−/− vs wt macrophages, ±100 ng/ml visfatin 24 h, then 5 μg/ml tunicamycin 5 h", "from_the_text": "FIG. 4. […] Whole cell lysates were immunoblotted for CHOP and β-actin."}, "[4]": {"test_system": "macrophages in mouse peritoneal cavity", "assay": "Acute UPR induction in mouse peritoneal macrophages in vivo, CHOP immunoblot", "design": "species or system Male C57/B6 mice", "settings": "i.v. 5 mg recombinant visfatin, 24 h later i.p. 25 μg tunicamycin, harvest 12 h after, CHOP normalized against phospho-eIf2α", "protocol": "FIG. 5. […] FIG. 5A. Male C57/B6 mice were subjected to intra-peritoneal (i.p.) injection of 1 ml of 4% thioglycolate to elicit peritoneal macrophages. Three days later, the mice were injected i.v. with 0.1 ml sterile saline ±5 mg recombinant visfatin (vis). Twenty-four hours later, these mice were injected i.p. with 0.5 ml 150 mM dextrose ±25 μg tunicamycin (TN). Twelve hours after TN injection, macrophages were harvested by peritoneal lavage and immediately lysed in RIPA buffer. The lysates were subjected to SDS-PAGE and immunoblotting for CHOP, phospho-eIf2α and β-actin. FIG. 5B. The intensity of CHOP bands were quantified and normalized against that of phospho-eIf2α."}, "[5]": {"test_system": "atherosclerotic plaque formation", "assay": "Atherosclerotic plaque formation in susceptible mice on high cholesterol diet", "assay_type": "in vivo", "settings": "vs diluent alone, mice with reduced ApoE1 expression", "from_the_text": "Recombinant visfatin polypeptides will be injected into mice susceptible to atherosclerotic plaque formation. In accordance with this prophetic example, the genome of these mice can comprise a transgenic modification wherein ApoE1 gene expression is reduced to levels that promote atherosclerosis. The mice will be continuously fed a high cholesterol diet to promote the formation of atherosclerotic lesions. One group of mice will be administered a pharmaceutically effective amount of visfatin polypeptide in a suitable diluent and another group of mice will be administered diluent alone and the incidence of atherosclerotic plaque formation will be compared between the two groups. The amount of visfatin polypeptide, the length of administration and the frequency of administration are variables that can readily be determine by an individual skilled in the art."}, "[6]": {"test_system": "macrophages in atherosclerotic plaques", "assay": "Macrophage death in atherosclerotic plaques of susceptible mice", "assay_type": "in vivo", "settings": "vs diluent alone; mice with reduced ApoE1 expression, high cholesterol diet", "from_the_text": "Recombinant visfatin polypeptides will be injected into mice susceptible to atherosclerotic plaque formation. In accordance with this prophetic example, the genome of these mice can comprise a transgenic modification wherein ApoE1 gene expression is reduced to levels that promote atherosclerosis. The mice will be continuously fed a high cholesterol diet to promote the formation of atherosclerotic lesions. One group of mice will be administered a pharmaceutically effective amount of visfatin polypeptide in a suitable diluent and another group of mice will be administered diluent alone and the amount of macrophage death in atherosclerotic plaques will be compared between the two groups. The amount of visfatin polypeptide, the length of administration and the frequency of administration are variables that can readily be determine by an individual skilled in the art."}, "[7]": {"test_system": "ER stress related disease", "assay": "ER-stress related disease in susceptible mice", "assay_type": "in vivo", "settings": "vs diluent alone; mice susceptible to an ER-stress related disease"}}, "data": [{"molecule": "visfatin: adipokine protein, having a molecular weight of about 52,000 daltons; polypeptide having SEQ ID NO:1 (protein, listed as Homo sapiens) MNPAAEAEFNILLATDSYKVTHYKQYPPNTSKVYSYFECREKKTENSKLRKVKYEETVFYGLQYILNKYLKGKVVTKEKIQEAKDVYKEHFQDDVFNEKGWNYILEKYDGHLPIEIKAVPEGFVIPRGNVLFTVENTDPECYWLTNWIETILVQSWYPITVATNSREQKKILAKYLLETSGNLDGLEYKLHDFGYRGVSSQETAGIGASAHLVNFKGTDTVAGLALIKKYYGTKDPVPGYSVPAAEHSTITAWGKDHEKDAFEHIVTQFSSVPVSVVSDSYDIYNACEKIWGEDLRHLIVSRSTQAPLIIRPDSGNPLDTVLKVLEILGKKFPVTENSKGYKLLPPYLRVIQGDGVDINTLQEVCVLY", "values": [{"measurement": "ER-stress mediated apoptosis of macrophages", "setting": "macrophages", "value": "protects macrophages from ER-stress mediated apoptosis"}, {"measurement": "ER-stress mediated apoptosis of macrophages", "setting": "macrophages; listed as Visfatin", "value": "protects macrophages from ER stress-mediated apoptosis"}, {"measurement": "distal UPR effectors / distal UPR activation (CHOP, ATF3, XBP-1, ATF4)", "setting": "[1]", "value": "directly targets distal UPR effectors"}, {"measurement": "distal UPR effectors / distal UPR activation (CHOP, ATF3, XBP-1, ATF4)", "setting": "[1]; listed as Visfatin", "value": "suppresses the distal UPR activation"}, {"measurement": "upstream UPR activators (PERK, IRE1α, phospho-eIf2α)", "setting": "[1]; ±100 ng/ml visfatin 24 h, then 5 μg/ml tunicamycin 5 h, nuclei-free cell extracts", "value": "without inhibiting upstream UPR activators"}, {"measurement": "mRNA level of ATF4", "setting": "ATF4 [2]", "value": "intact"}, {"measurement": "translation of ATF4 / ATF4 protein synthesis", "setting": "ATF4 [3]", "value": "halted"}, {"measurement": "translation of ATF4 / ATF4 protein synthesis", "setting": "ATF4 [3]; listed as Visfatin", "value": "suppresses ATF4 protein synthesis"}, {"measurement": "UPR-suppressing effect, dependence on the insulin receptor", "setting": "insulin receptor", "value": "independent of the insulin receptor"}, {"measurement": "acute UPR induction in macrophages of the mouse peritoneal cavity", "setting": "[4]; listed as Recombinant visfatin", "value": "suppresses the acute UPR induction of macrophages in mouse peritoneal cavity"}, {"measurement": "acute UPR induction in macrophages of the mouse peritoneal cavity", "setting": "[4]; listed as recombinant visfatin", "value": "suppress acute UPR induction in macrophages of the mouse peritoneal cavity"}, {"measurement": "incidence of atherosclerotic plaque formation", "setting": "[5]", "value": "lower incidence of atherosclerotic plaque formation"}, {"measurement": "amount of macrophage death in atherosclerotic plaques", "setting": "[6]", "value": "lower amount of cell death"}, {"measurement": "incidence of the ER stress related disease", "setting": "[7]", "value": "lower incidence of the ER stress related disease"}]}]}
